Data taken from the supplement of paper PMC9233669.
Variants at the floor of the assay were thinned out.

Legend:
[1] = system: biotinyl-Met-oxazolone; assay: self-aminoacylation, catalytic enhancement (BMO) (fold over background); higher = more active; k-Seq, kA / k0A0; sequences stand for … in GGGAAUGGAUCCACAUCUACGAAUUC…UUCACUGCAGACUUGACGAAGCUG
Summary of the method: (§1)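 The uncatalyzed rate is the low-activity peak of a bimodal Gaussian fit, and catalytic enhancement is median kA divided by it. The kA values came from pseudo-first-order fits, with 1000 bootstraps, of per-sequence fraction reacted measured by streptavidin capture, triplicate qPCR and Illumina sequencing. Mutagenized RNA pools with a 21-nt variable region (0.43 μM) were reacted with each biotinyl-aminoacyl-oxazolone at 2–1250 μM in 50 μL HEPES/NaCl/KCl/MgCl2/CaCl2 buffer with 5% acetonitrile, pH 6.9–7.0, for 90 minutes at room temperature.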

[2] = system: biotinyl-Val-oxazolone; assay: self-aminoacylation, catalytic enhancement (BVO) (fold over background); higher = more active; k-Seq, kA / k0A0; sequences stand for … in GGGAAUGGAUCCACAUCUACGAAUUC…UUCACUGCAGACUUGACGAAGCUG
Summary of the method: as §1

[3] = system: biotinyl-Ile-oxazolone; assay: self-aminoacylation, catalytic enhancement (BIO) (fold over background); higher = more active; k-Seq, kA / k0A0; sequences stand for … in GGGAAUGGAUCCACAUCUACGAAUUC…UUCACUGCAGACUUGACGAAGCUG
Summary of the method: as §1

[4] = system: biotinyl-Phe-oxazolone; assay: self-aminoacylation, catalytic enhancement (BFO) (fold over background); higher = more active; k-Seq, kA / k0A0; sequences stand for … in GGGAAUGGAUCCACAUCUACGAAUUC…UUCACUGCAGACUUGACGAAGCUG
Summary of the method: as §1

[5] = system: biotinyl-Leu-oxazolone; assay: self-aminoacylation, catalytic enhancement (BLO) (fold over background); higher = more active; k-Seq, kA / k0A0; sequences stand for … in GGGAAUGGAUCCACAUCUACGAAUUC…UUCACUGCAGACUUGACGAAGCUG
Summary of the method: as §1

[6] = system: biotinyl-Trp-oxazolone; assay: self-aminoacylation, catalytic enhancement (BWO) (fold over background); higher = more active; k-Seq, kA / k0A0; sequences stand for … in GGGAAUGGAUCCACAUCUACGAAUUC…UUCACUGCAGACUUGACGAAGCUG
Summary of the method: as §1

Sequence	self-aminoacylation [1]	self-aminoacylation [2]	self-aminoacylation [3]	self-aminoacylation [4]	self-aminoacylation [5]	self-aminoacylation [6]
AAGCUUGCUAAUCGUCGCAAG [Fam3.1 aminoacylation ribozyme variant]	1.55	1.45	1.85	2.14	1.65	2.85
AAGGUUGCUAAUAGUCGCUAG [Fam3.1 aminoacylation ribozyme variant]	1.03	1.03	1.3	1.54	1.19	1.27
AAGGUUGCUAAUAGUCGGAAG [Fam3.1 aminoacylation ribozyme variant]	1.08	0.973	1.51	4.52	1.23	3.38
AAGGUUGCUAAUUGUCGCAAG [Fam3.1 aminoacylation ribozyme variant]	1.36	1.41	1.56	1.4	1.14	2.85
AAGGUUGCUAGUAGUCGCAAG [Fam3.1 aminoacylation ribozyme variant]	1.3	1.07	1.18	1.77	0.971	1.3
AAGGUUUCUAAUAGUCGCAAG [Fam3.1 aminoacylation ribozyme variant]	1.04	1.53	1.64	2.65	1.05	1.6
AAGUAUGCCAAUAGUCGCAAG [Fam3.1 aminoacylation ribozyme variant]	1.77	1.46	2.21	2.34	1.53	1.43
AAGUAUGCUAAUAGCCGCAAG [Fam3.1 aminoacylation ribozyme variant]	1.06	1.05	1.49	5.73	1.16	2.58
AAGUAUGCUAAUAGUCUCAAG [Fam3.1 aminoacylation ribozyme variant]	1.55	1.31	1.43	8.35	1.6	2.69
AAGUAUGCUAUUAGUCGCAAG [Fam3.1 aminoacylation ribozyme variant]	1.38	1.59	1.66	1.49	1.68	1.76
AAGUAUUCUAAUAGUCGCAAG [Fam3.1 aminoacylation ribozyme variant]	1.58	1.6	1.61	7.07	1.71	1.83
AAGUCCGCUAAUAGUCGCAAG [Fam3.1 aminoacylation ribozyme variant]	2.99	2.09	2.43	46.3	2.02	10.7
AAGUCUGCUAAAAGUCGCAAG [Fam3.1 aminoacylation ribozyme variant]	1.92	1.23	1.35	23.1	1.72	6.66
AAGUCUGCUAAUAGUCCCAAG [Fam3.1 aminoacylation ribozyme variant]	1.38	0.893	0.928	7.42	1.15	2.43
AAGUCUGCUAAUAGUCGCAGG [Fam3.1 aminoacylation ribozyme variant]	2.07	1.44	1.7	5.31	2.25	1.97
AAGUCUGCUAAUAGUCGGAAG [Fam3.1 aminoacylation ribozyme variant]	2.09	1.61	1.25	18.4	1.87	7.78
AAGUCUGCUAAUAGUGGCAAG [Fam3.1 aminoacylation ribozyme variant]	0.98	0.765	0.678	3.1	0.866	1.17
AAGUCUGCUAGUAGUCGCAAG [Fam3.1 aminoacylation ribozyme variant]	0.975	1.06	0.775	1.06	1.44	0.88
AAGUCUGCUUAUAGUCGCAAG [Fam3.1 aminoacylation ribozyme variant]	1.18	0.822	0.895	1.42	1.25	0.87
AAGUCUGUUAAUAGUCGCAAG [Fam3.1 aminoacylation ribozyme variant]	1.03	1.03	1.14	1.04	1.01	0.936
AAGUGUGCUAAUAAUCGCAAG [Fam3.1 aminoacylation ribozyme variant]	1.25	1.29	1.35	1.51	0.989	1.09
AAGUGUGCUAAUAGUAGCAAG [Fam3.1 aminoacylation ribozyme variant]	1.02	1.33	1.27	1.65	1.21	1.6
AAGUGUGCUAAUGGUCGCAAG [Fam3.1 aminoacylation ribozyme variant]	0.926	1.06	0.864	2.15	0.792	1.21
AAGUGUGCUAAUUGUCGCAAG [Fam3.1 aminoacylation ribozyme variant]	1.45	1.49	1.5	1.56	1.51	2.65
AAGUGUGCUAUUAGUCGCAAG [Fam3.1 aminoacylation ribozyme variant]	1.36	1.43	1.29	2.19	0.947	0.997
